Results: patent US20140234336A1

Molecular target: HA of H3N2 influenza virus Wyomin/3/03.rg (influenza A virus H3N2 Wyomin/3/03.rg)
Assay: cell-based or functional assay

## CT149 antibody
  MN titer: 5 µg/mL
